From the supplement of paper PMC12764529
± gives the half width of the 95% confidence interval.

How the values were obtained:
[1] = folding stability dG unfold from trypsin proteolysis; higher = more stable
Method in brief: (§1)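 Designed mini-proteins with no cysteine and under 80 residues were kept only if AlphaFold2 dimer inter-PAE was above 15. In a PA-tagged cDNA display construct, they were digested with trypsin and chymotrypsin and then sequenced. K50 was inferred by Bayesian fitting of counts, and unfolding free energy was derived per protease or combined against a sequence-predicted unfolded-state K50 and a shared folded-state K50.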

[2] = folding stability dG unfold (combined trypsin and chymotrypsin); higher = more stable
Method in brief: as §1

[3] = folding stability dG unfold from chymotrypsin proteolysis; higher = more stable
Method in brief: as §1

Sequence	folding stability dG unfold [1]	folding stability dG unfold [2]	folding stability dG unfold [3]
SAGGGKTVVTTTPDGRTVVAAELPDGSVVAVATFPDAPVLATYNPETKTVTVAFFKGGKLVATASDSSSAGG [r13_748_TrMRF]	0.698 ± 0.062 kcal/mol	0.837 ± 0.13 kcal/mol	0.855 ± 0.11 kcal/mol
SMRVRPDGYAVVIEVRVTEDAGPPPPPFEAIRDPETDRVTVVAGATPEEIVAFAEFPGVEVERIEVIPLLSA [r9_827_TrMRF]	0.24 ± 0.1 kcal/mol	0.572 ± 0.099 kcal/mol	0.675 ± 0.086 kcal/mol
SIKIQVHMWPDGFYVIKVRFPGNGKPIHIPFPPNETAEEQVDKIANNLWKQHGFEPVEVDIYPMPKPLPPSA [r9_1205_TrROS]	1.81 ± 0.088 kcal/mol	2.15 ± 0.12 kcal/mol	2.25 ± 0.034 kcal/mol
SAGGSAGGSAKETLRMELELEIDGVVVRVEAEVELDPETNELHIRVKVEVEPLPPPLPPGLESAGGSAGGSA [r18_16_TrROS_Hall]	1.2 ± 0.2 kcal/mol	2.32 ± 0.33 kcal/mol	2.53 ± 0.34 kcal/mol
SAGGPGMKMEPIAQIEFPGGRKITIHRMEMPNGNKMVNVNIMNPNGKTKTVMVPMGDIDEAIDALKLSAGGS [r16_588_TrROS]	1.65 ± 0.036 kcal/mol	1.29 ± 0.12 kcal/mol	1.04 ± 0.07 kcal/mol
SAGGGRTITVTARFTDPATGTTTTETITIDVPSDTSEEEKKEIAEKTVKEIAEKNGVKSEIESISITSAGGS [r8_312_JUSTAS]	4.24 ± 0.29 kcal/mol	4.32 ± 0.7 kcal/mol	2.3 ± 0.17 kcal/mol
SAGGPKKITIHITEMYRNKNGPYYYRVEIRDGGKPKEYNFPFDSPDEMLDNIEKLADELGLKVEIEPFSAGG [r13_750_TrROS]	1.55 ± 0.06 kcal/mol	1.88 ± 0.22 kcal/mol	2.16 ± 0.16 kcal/mol
SAGGSAEIVIVESPQQVREAAEPENPDGPPVKVIPMTYEEAKNEIRELKKKGKPMKIVIVIDPGTPSAGGSA [r15_567_TrROS]	-0.547 ± 0.41 kcal/mol	-0.429 ± 0.65 kcal/mol	-0.167 ± 0.24 kcal/mol
SAGGSAGGMTPVVVTVTITLPNGEVVEYRVPVAPDELEAAAEAVKEPLEAQGVDVEVEIEAVAASAGGSAGG [r6_721_JUSTAS]	1.99 ± 0.065 kcal/mol	1.7 ± 0.089 kcal/mol	1.5 ± 0.033 kcal/mol
SAGKKKEEEKKKKEEKKKKEYYLVKVKIKNPNGEEKEIVLKAKSLEEAKKALEKLGLKVEIVEIKPIKVSAG [r5_233_TrROS_Hall]	1.7 ± 0.11 kcal/mol	2.71 ± 0.17 kcal/mol	3.03 ± 0.11 kcal/mol
IVISPSMLRDARRQGIPKELLKKAKNVIIWSSNGNPEWAKELKEWPGVKKIKPVPPGDPDKQKDADHVIHFS [r1_248_TrROS]	-0.554 ± 0.55 kcal/mol	-0.482 ± 0.29 kcal/mol	-0.673 ± 0.49 kcal/mol
SMTEELVIDFPDGVKATVRRFGDGEVTITIDWPTDNPELRKKGGIKALVDAIAKELGLDPSKVKVYTRNASA [r9_401_TrMRF]	3.05 ± 0.086 kcal/mol	3.75 ± 0.11 kcal/mol	4.12 ± 0.087 kcal/mol
SAGGKKKITIEVEKKEDGKEVKVKIKVDGKEIEITFPENMSKEELLEAAKKLAEENNIEIEEVEIYPSAGGS [r16_753_TrROS_Hall]	1.24 ± 0.1 kcal/mol	1.53 ± 0.15 kcal/mol	1.54 ± 0.091 kcal/mol
SAGGSAGGSASSTLRTVRFPPDTPLEEVKEALAAEFPDRDPNIKILEVRPEDGGLVVTVEVVSAGGSAGGSA [r18_360_JUSTAS]	1.51 ± 0.033 kcal/mol	1.62 ± 0.057 kcal/mol	1.58 ± 0.031 kcal/mol
SAGGAMSSPVGTVTLTSPAGETVTITVYPGKTEVTTRPPDGSVTVTSLADKSVEEVIAELKAEGYEVLSSAG [r5_613_JUSTAS]	4 ± 0.18 kcal/mol	3.25 ± 0.039 kcal/mol	2.99 ± 0.03 kcal/mol
SAGGSAGGSAGGMTVERDPEKPVVTVTITDPSGASIVVEIPYETEEEAEAAVKKVIEELASAGGSAGGSAGG [r7_756_JUSTAS]	2.11 ± 0.091 kcal/mol	1.83 ± 0.13 kcal/mol	1.53 ± 0.07 kcal/mol
SAGGSAMPKIEVTVYFPENGTETVEIHFPPGKVITGPLSLLEEIIESGIPKENISISYKTLSPSLTSAGGSA [r15_955_JUSTAS]	1.64 ± 0.03 kcal/mol	1.37 ± 0.041 kcal/mol	1.05 ± 0.061 kcal/mol
SAGGSAEPIGTLTLSFPVKVKVKDADGSIHEYDVTITVTPTVYRLPNGDLVVGLDVEIVFPDGSSLPGSAGG [r13_113_TrMRF]	3.11 ± 0.1 kcal/mol	4.16 ± 0.066 kcal/mol	4.42 ± 0.065 kcal/mol
SAGATLLEERELPDGSRVEVYREPDKLIVRVFSPDREVETRVFPLPPEPPLPVVPVVVDPARGRFVRLSAGG [r19_254_JUSTAS]	-0.621 ± 0.19 kcal/mol	-0.106 ± 0.077 kcal/mol	-0.00636 ± 0.11 kcal/mol
SAGGSKPTVTLELYIEVPEEELSEEEIKKLLEELAKELNLEVEVTVEVEEKDGKLIVKVTVTIKKPSAGGSA [r2_172_TrROS_Hall]	2.15 ± 0.19 kcal/mol	2.25 ± 0.25 kcal/mol	2.28 ± 0.14 kcal/mol
SAGGSAGGSKKPVKVTVTVEVNPETGEITKVTVTEEYKDGTVTVTVTNANGEKLTFTFKIKKPSAGGSAGGS [r12_60_TrROS_Hall]	2.15 ± 0.11 kcal/mol	2.79 ± 0.082 kcal/mol	3.099 ± 0.024 kcal/mol
